For 1 substance, fold adhesion over untransfected CHO cells results are on record in PMC2195629.

The test has as its target Glycocalicin, the soluble extracellular portion of human GP Ibα (human) (UniProt P07359). Nature of the test: cell adhesion assay.
Chain of UniProt P07359 (P07359 17-531): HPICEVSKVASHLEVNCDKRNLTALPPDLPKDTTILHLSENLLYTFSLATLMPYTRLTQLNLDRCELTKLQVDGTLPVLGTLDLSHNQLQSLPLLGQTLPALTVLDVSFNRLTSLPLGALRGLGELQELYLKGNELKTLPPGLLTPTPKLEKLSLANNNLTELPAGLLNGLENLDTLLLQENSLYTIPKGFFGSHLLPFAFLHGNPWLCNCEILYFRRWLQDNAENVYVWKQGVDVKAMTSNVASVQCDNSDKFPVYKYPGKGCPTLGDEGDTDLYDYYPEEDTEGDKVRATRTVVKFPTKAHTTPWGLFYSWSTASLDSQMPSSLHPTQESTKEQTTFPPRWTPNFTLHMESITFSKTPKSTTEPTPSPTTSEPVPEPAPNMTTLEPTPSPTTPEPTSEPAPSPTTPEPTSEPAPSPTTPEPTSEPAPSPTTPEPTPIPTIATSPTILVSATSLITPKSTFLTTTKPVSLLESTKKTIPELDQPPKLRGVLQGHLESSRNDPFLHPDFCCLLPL

“phosphatidylinositol glycan–linked form of P-selectin on CHO cells (CHO-P) (from UniProt P16109 42-830) (receptor)” displayed a fold adhesion over untransfected CHO cells of 5 fold.
